Measured values taken from paper PMC3127752.

Legend:
[1] = test system: T1, SO2426 (Shewanella oneidensis MR-1), ORF:71750797; assay: EMSA; conditions: DIG-11-dUTP incorporated (dTTP:DIG-dUTP 1:6 mix), 0.5X EMSA buffer [5 mM Tris-Cl pH 8.0, 75 mM KCl, 0.05 mM DTT, 0.05 mM EDTA, 6% glycerol], 5 mM MgCl2, 20 mM acetyl phosphate, 0.2 ug/ul poly(dI:dC)
T1 sequence: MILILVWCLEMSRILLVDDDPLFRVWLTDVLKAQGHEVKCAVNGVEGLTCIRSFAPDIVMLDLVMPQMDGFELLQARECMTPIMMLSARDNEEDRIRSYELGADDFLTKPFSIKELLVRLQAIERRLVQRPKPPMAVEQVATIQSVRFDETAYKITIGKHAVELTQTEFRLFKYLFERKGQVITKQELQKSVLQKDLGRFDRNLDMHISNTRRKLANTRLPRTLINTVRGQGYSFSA

[2] = target: T2, SO2426sh (Shewanella oneidensis MR-1) (UniProt Q8EEF6); assay: EMSA; conditions: DIG-11-dUTP incorporated (dTTP:DIG-dUTP 1:6 mix), 0.5X EMSA buffer [5 mM Tris-Cl pH 8.0, 75 mM KCl, 0.05 mM DTT, 0.05 mM EDTA, 6% glycerol], 5 mM MgCl2, 20 mM acetyl phosphate, 0.2 ug/ul poly(dI:dC)
T2 sequence: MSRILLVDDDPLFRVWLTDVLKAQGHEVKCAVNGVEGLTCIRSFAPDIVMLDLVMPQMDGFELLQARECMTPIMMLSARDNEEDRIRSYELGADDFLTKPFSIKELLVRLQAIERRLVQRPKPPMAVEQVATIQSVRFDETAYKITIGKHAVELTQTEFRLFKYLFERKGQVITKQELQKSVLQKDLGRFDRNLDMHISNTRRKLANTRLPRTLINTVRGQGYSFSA

With “TTCGTCGTTGTAGTGAACCTGTAACAGCAAATCAGACGGAAAAATTTCTATTTAGCAACACAATGGAATGACTTACACGGCA (double strand) [so3030 upstream 83-bp probe]” the binding [1] was “binds” and the binding [2] was “binds”.
